Measurements reported in publication PMC3411786.

Tests used:
Asp85 [1] = molecular target: Asp85 (UniProt position 98, WARYADWLFTA); assay: UV-vis; settings: pH adjusted with 0.1 M HCl or NaOH, Retinal-reconstituted chromoprotein in purple membrane, ground state. Light/dark adaptation state during the titration is not stated.
Asp85 [2] = molecular target: Asp85 (UniProt position 98, WARYADWLFTT); assay: UV-vis; settings: pH adjusted with 0.1 M HCl or NaOH, Retinal-reconstituted chromoprotein in purple membrane, ground state. Light/dark adaptation state during the titration is not stated.
[3] = 150 mM KCl, none stated (Methods say non-buffered)
[4] = Deionised water with no added salt, apart from the HCl/NaOH titrant, none (non-buffered)

| Substance | pKa (Asp85 [1]; [3]) | pKa (Asp85 [1]; [4]) | pKa (Asp85 [2]; [3]) | pKa (Asp85 [2]; [4]) |
| --- | --- | --- | --- | --- |
| Bacteriorhodopsin T90A, bacterioopsin reconstituted with 13-ethyl retinal (T90A-13E-RET) (Halobacterium salinarum; T90A) | 6.4 | 6.7 |  |  |
| Bacteriorhodopsin T90A, bacterioopsin reconstituted with all-trans retinal (T90A-AT) (Halobacterium salinarum; T90A) | 5.8 | 6.1 |  |  |
| Bacteriorhodopsin, wild-type bacterioopsin reconstituted with 13-ethyl retinal (WT-13E-RET) (Halobacterium salinarum) |  |  | 4.5 | 4.7 |
| Bacteriorhodopsin, wild-type bacterioopsin reconstituted with all-trans retinal (WT-AT) (Halobacterium salinarum) |  |  | 3.9 | 4.6 |
